Reference: patent US20130225493A1 (HEPACORE, published 2013)

T1: FGFR4 extracellular domain, immobilized (R4-Fc) (UniProt P22455 22-369)
T1 construct: extracellular domain; also called FDCPR4-Fc
T1 sequence (looked up): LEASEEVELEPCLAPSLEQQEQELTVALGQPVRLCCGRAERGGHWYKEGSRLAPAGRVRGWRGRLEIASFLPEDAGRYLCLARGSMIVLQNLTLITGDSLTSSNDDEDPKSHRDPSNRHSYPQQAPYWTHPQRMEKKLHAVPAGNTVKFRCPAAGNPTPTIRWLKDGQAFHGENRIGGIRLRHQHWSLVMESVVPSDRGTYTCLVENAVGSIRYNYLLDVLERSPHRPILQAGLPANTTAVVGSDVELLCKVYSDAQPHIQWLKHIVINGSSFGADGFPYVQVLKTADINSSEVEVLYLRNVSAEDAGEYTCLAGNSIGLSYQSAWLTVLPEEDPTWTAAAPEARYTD


How the values were obtained:
[1] = target: T1, FGFR4 extracellular domain, immobilized …; assay: ELISA: biotinylated ligand on immobilized FGFR-Fc, HRP-streptavidin
Description: FIGS. 2A-2D. […] (2A) FGFR1; (2B) FGFR2; (2C) FGFR3 and (2D) FGFR4. Biotinylated FGF-18 (♦) and three FGF-18 variants (Δ37, v1,; Δ45, v2, (▪); and Δ51, v3, (▪)) were added at increasing concentrations to FGFR1-4 anchored to a MaxiSorp ELISA plate. Bound ligands were detected by HRP-streptavidin. Data are the average of duplicate wells.
FGF-18 and the N-terminal truncated variants (FGF-18^Δ37, FGF-18^Δ45 and FGF-18^Δ51) were tested for receptor specificity by binding to immobilized extracellular domain of FGFR1-4 (FIG. 2). Biotinylated FGF's were added at increasing concentrations to FGFR1-4 anchored to a MaxiSorp ELISA plate. Bound ligands were detected by HRP-streptavidin. […] The variants of the present invention are thus shown to be specific for FGFR3-4.

[2] = target: T1, FGFR4 extracellular domain, immobilized …; assay: functional ELISA on immobilized FGFR

EC50 [1] | EC50 [2] | Binder
8.1 ng/mL |  | FGF-18^Δ45 (ligand, biotinylated in the immobilized receptor assays (sites not given), E. coli expressed; Numbering includes the signal peptide (1-27); also called v2) MDVSRKQLRLYQLYSRTSGKHIQVLGRRISARGEDGDKYAQLLVETDTFGSQVRIKGKETEFYLCMNRKGKLVGKPDGTSKECVFIEKVLENNYTALMSAKYSGWYVGFTKKGRPRKGPKTRENQQDVHFMKRYPKGQPELQKPFKYTTVTKRSRRIRPTHPA
 | 9.36 ng/mL | FGF-18^Δ31 (ligand, biotinylation not stated for the functional ELISA of Table 4, E. coli expressed) MDFRIHVENQTRARDDVSRKQLRLYQLYSRTSGKHIQVLGRRISARGEDGDKYAQLLVETDTFGSQVRIKGKETEFYLCMNRKGKLVGKPDGTSKECVFIEKVLENNYTALMSAKYSGWYVGFTKKGRPRKGPKTRENQQDVHFMKRYPKGQPELQKPFKYTTVTKRSRRIRPTHPA
 | 7.11 ng/mL | FGF-18^Δ33 (ligand, biotinylation not stated for the functional ELISA of Table 4, E. coli expressed; Numbering includes the signal peptide (1-27)) MRIHVENQTRARDDVSRKQLRLYQLYSRTSGKHIQVLGRRISARGEDGDKYAQLLVETDTFGSQVRIKGKETEFYLCMNRKGKLVGKPDGTSKECVFIEKVLENNYTALMSAKYSGWYVGFTKKGRPRKGPKTRENQQDVHFMKRYPKGQPELQKPFKYTTVTKRSRRIRPTHPA
9.93 ng/mL | 10.6 ng/mL | FGF-18^Δ51 (ligand, biotinylated in the immobilized receptor assays (sites not given), E. coli expressed; Numbering includes the signal peptide (1-27); also called v3) MLRLYQLYSRTSGKHIQVLGRRISARGEDGDKYAQLLVETDTFGSQVRIKGKETEFYLCMNRKGKLVGKPDGTSKECVFIEKVLENNYTALMSAKYSGWYVGFTKKGRPRKGPKTRENQQDVHFMKRYPKGQPELQKPFKYTTVTKRSRRIRPTHPA
9.23 ng/mL | 10.2 ng/mL | FGF-18 (recombinant wild type, mature form without the signal peptide) (ligand, biotinylated in the immobilized receptor assays (sites not given), Expressed in E. coli from pET9a and purified on heparin Sepharose; also called FGF-18 wild type; F18 w.t) MENVDFRIHVENQTRARDDVSRKQLRLYQLYSRTSGKHIQVLGRRISARGEDGDKYAQLLVETDTFGSQVRIKGKETEFYLCMNRKGKLVGKPDGTSKECVFIEKVLENNYTALMSAKYSGWYVGFTKKGRPRKGPKTRENQQDVHFMKRYPKGQPELQKPFKYTTVTKRSRRIRPTHPA
5.86 ng/mL | 8.28 ng/mL | FGF-18^Δ37 (ligand, biotinylated in the immobilized receptor assays (sites not given), E. coli expressed; Numbering includes the signal peptide (1-27); also called v1) MENQTRARDDVSRKQLRLYQLYSRTSGKHIQVLGRRISARGEDGDKYAQLLVETDTFGSQVRIKGKETEFYLCMNRKGKLVGKPDGTSKECVFIEKVLENNYTALMSAKYSGWYVGFTKKGRPRKGPKTRENQQDVHFMKRYPKGQPELQKPFKYTTVTKRSRRIRPTHPA
